Biological target: histone H4 (X. laevis), as in the H3K4Cme3 nucleosome (X. laevis, UniProt P62799 1-103)
Assay: cryo-EM structure

binding result: binds
B1: H. sapiens Chromodomain Helicase DNA Binding Protein 1 (CHD1 residues 1-1327 lacking the CHCT domain) (enzyme)
chain: MNGHSDEESVRNSSGESSQSDDDSGSASGSGSGSSSGSSSDGSSSQSGSSDSDSGSESGSQSESESDTSRENKVQAKPPKVDGAEFWKSSPSILAVQRSAILKKQQQQQQQQQHQASSNSGSEEDSSSSEDSDDSSSEVKRKKHKDEDWQMSGSGSPSQSGSDSESEEEREKSSCDETESDYEPKNKVKSRKPQNRSKSKNGKKILGQKKRQIDSSEEDDDEEDYDNDKRSSRRQATVNVSYKEDEEMKTDSDDLLEVCGEDVPQPEEEEFETIERFMDCRIGRKGATGATTTIYAVEADGDPNAGFEKNKEPGEIQYLIKWKGWSHIHNTWETEETLKQQNVRGMKKLDNYKKKDQETKRWLKNASPEDVEYYNCQQELTDDLHKQYQIVERIIAHSNQKSAAGYPDYYCKWQGLPYSECSWEDGALISKKFQACIDEYFSRNQSKTTPFKDCKVLKQRPRFVALKKQPSYIGGHEGLELRDYQLNGLNWLAHSWCKGNSCILADEMGLGKTIQTISFLNYLFHEHQLYGPFLLVVPLSTLTSWQREIQTWASQMNAVVYLGDINSRNMIRTHEWTHHQTKRLKFNILLTTYEILLKDKAFLGGLNWAFIGVDEAHRLKNDDSLLYKTLIDFKSNHRLLITGTPLQNSLKELWSLLHFIMPEKFSSWEDFEEEHGKGREYGYASLHKELEPFLLRRVKKDVEKSLPAKVEQILRMEMSALQKQYYKWILTRNYKALSKGSKGSTSGFLNIMMELKKCCNHCYLIKPPDNNEFYNKQEALQHLIRSSGKLILLDKLLIRLRERGNRVLIFSQMVRMLDILAEYLKYRQFPFQRLDGSIKGELRKQALDHFNAEGSEDFCFLLSTRAGGLGINLASADTVVIFDSDWNPQNDLQAQARAHRIGQKKQVNIYRLVTKGSVEEDILERAKKKMVLDHLVIQRMDTTGKTVLHTGSAPSSSTPFNKEELSAILKFGAEELFKEPEGEEQEPQEMDIDEILKRAETHENEPGPLTVGDELLSQFKVANFSNMDEDDIELEPERNSKNWEEIIPEDQRRRLEEEERQKELEEIYMLPRMRNCAKQISFNGSEGRRSRSRRYSGSDSDSISEGKRPKKRGRPRTIPRENIKGFSDAEIRRFIKSYKKFGGPLERLDAIARDAELVDKSETDLRRLGELVHNGCIKALKDSSSGTERTGGRLGKVKGPTFRISGVQVNAKLVISHEEELIPLHKSIPSDPEERKQYTIPCHTKAAHFDIDWGKEDDSNLLIGIYEYGYGSWEMIKMDPDLSLTHKILPDDPDKKPQAKQLQTRADYLIKLLSRDLAKKEALSGAG

Reference: paper PMC12126155 (Molecular cell, 2025)
